Some results are limits rather than exact numbers.

Experimental findings from patent US20180292408A1 are described below.

Assay [1] has as its target β-gal-Core-192 (HCV-241) (hepatitis C virus). The experiment in a line: sandwich ELISA, C7-50 capture, llama anti-serum detection. A general note: An ELISA detects its analyte on a solid surface through an enzyme-linked reagent.
The target is the same in assay [2]. Description: sandwich ELISA, C7-50 coated, detected with llama serum and HRP-goat-anti-llama antibody.
Assay [3] shares this target. The experiment in a line: lateral flow immunoassay, C7-50 labelled with colloidal gold, purified rabbit antibody on the test line.

Sequence of β-gal-Core-192 (HCV-241) (hepatitis C virus) (P00722 2-1024): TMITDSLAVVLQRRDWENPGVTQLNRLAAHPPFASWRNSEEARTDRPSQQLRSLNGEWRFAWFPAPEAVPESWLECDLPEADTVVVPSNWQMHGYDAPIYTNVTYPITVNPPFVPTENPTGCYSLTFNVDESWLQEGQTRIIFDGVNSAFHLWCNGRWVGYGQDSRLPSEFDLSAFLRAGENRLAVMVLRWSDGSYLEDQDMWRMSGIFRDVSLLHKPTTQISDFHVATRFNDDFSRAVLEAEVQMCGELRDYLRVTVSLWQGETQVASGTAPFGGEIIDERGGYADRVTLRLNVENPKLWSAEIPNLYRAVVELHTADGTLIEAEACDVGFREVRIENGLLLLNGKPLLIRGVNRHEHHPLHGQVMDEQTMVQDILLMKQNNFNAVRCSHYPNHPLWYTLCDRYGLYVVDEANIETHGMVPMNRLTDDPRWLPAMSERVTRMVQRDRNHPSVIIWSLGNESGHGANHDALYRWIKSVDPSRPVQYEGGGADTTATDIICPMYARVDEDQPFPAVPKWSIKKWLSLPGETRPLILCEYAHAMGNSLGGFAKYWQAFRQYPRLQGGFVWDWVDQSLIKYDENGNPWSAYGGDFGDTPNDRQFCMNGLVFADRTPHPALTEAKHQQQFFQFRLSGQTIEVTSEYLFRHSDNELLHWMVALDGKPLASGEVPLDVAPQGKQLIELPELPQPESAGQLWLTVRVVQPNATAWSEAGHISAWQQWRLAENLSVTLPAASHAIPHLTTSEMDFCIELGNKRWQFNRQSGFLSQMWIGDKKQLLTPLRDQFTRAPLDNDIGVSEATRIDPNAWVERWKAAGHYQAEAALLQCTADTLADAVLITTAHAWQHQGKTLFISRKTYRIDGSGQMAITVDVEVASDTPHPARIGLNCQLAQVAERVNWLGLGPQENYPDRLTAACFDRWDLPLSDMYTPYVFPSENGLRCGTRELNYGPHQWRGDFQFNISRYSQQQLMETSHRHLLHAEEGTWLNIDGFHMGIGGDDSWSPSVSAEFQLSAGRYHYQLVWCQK

Substance “mouse monoclonal antibody (clone C7-50), Abcam” displayed a detection limit of the sandwich ELISA in assay [1] of less than 40 ng/mL. In assay [2], this substance showed an OD450 at 0 ng/ml antigen (background) of 0.181 OD450, an OD450 at 8 ng/ml antigen of 0.221 OD450, an OD450 at 40 ng/ml antigen of 0.214 OD450 and an OD450 at 200 ng/ml antigen of 0.3 OD450. In assay [2], the OD450 at 1000 ng/ml antigen turned out to be 0.494 OD450, the OD450 at 5000 ng/ml antigen stood at 1.74 OD450, the OD450 at 25000 ng/ml antigen was determined as 2.18 OD450 and the OD450 at 125000 ng/ml antigen is 2.27 OD450. The same substance gave an antigen concentration detected in LFIA in assay [3] of 0.3 ng/µL.
